Source: patent US20240270821A1, “GIP/GLP1/GCG TRI-RECEPTOR AGONISTS AND USES THEREOF” (priority 2023, published 2024)
Substitutions are numbered along the chain they refer to.

B1: Example 954 (peptide)
chain: YXQGTFTSDXSQXLDKKAQXAFIEXLIEGGPSSGAPPPSGSEE
modifications: non-natural residues; Lys acylated C18 diacid; C-terminal amide; synthetic construct; SITE 2: note = 2-Aminoisobutyric Acid; SITE 10: note = 3-(4-Pyridyl)-L-alanine; SITE 13: note = alpha-methyl-leucine; SITE 17: note = Lysine is chemically modified through conjugation of the epsilon-amino group of the Lysine side chain with (2-[2-(2-Amino-ethoxy)-ethoxy]-acetyl)
B2: Example 956 (peptide)
chain: B1 chain with Q12R
modifications: acylated lysine AEEA-γGlu-C18 diacid; non-natural residues; C-terminal amide; synthetic construct; SITE 2: note = 2-Aminoisobutyric Acid; SITE 10: note = 3-(4-Pyridyl)-L-alanine; SITE 13: note = alpha-methyl-leucine; SITE 17: note = Lysine is chemically modified through conjugation of the epsilon-amino group of the Lysine side chain with (2-[2-(2-Amino-ethoxy)-ethoxy]-acetyl)
B3: Example 973 (peptide)
chain: B1 chain with Q12X, K16X, A21E
modifications: Aib, 4Pal, Orn, Me4Pal, αMeY; acylated lysine; amide; synthetic construct; SITE 2: note = 2-Aminoisobutyric Acid; SITE 10: note = 3-(4-Pyridyl)-L-alanine; SITE 12: note = L-ornithine; SITE 13: note = alpha-methyl-leucine; SITE 16: note = L-ornithine; SITE 17: note = Lysine is chemically modified through conjugation of the epsilon-amino group of the Lys
B4: Example 957 (peptide)
chain: B1 chain
modifications: non-natural residues; Lys acylated C18 diacid; C-terminal amide; synthetic construct; SITE 2: note = 2-Aminoisobutyric Acid; SITE 10: note = 3-(4-Pyridyl)-L-alanine; SITE 13: note = alpha-methyl-leucine; SITE 17: note = Lysine is chemically modified through conjugation of the epsilon-amino group of the Lysine side chain with (gamma-Glu)2-CO-(CH2)16-CO2H; SITE 20:
B5: Example 962 (peptide)
chain: B1 chain with Q12R, X25Y, E28A
modifications: synthetic construct; SITE 2: note = 2-Aminoisobutyric Acid; SITE 10: note = 3-(4-Pyridyl)-L-alanine; SITE 13: note = alpha-methyl-leucine; SITE 17: note = Lysine is chemically modified through conjugation of the epsilon-amino group of the Lysine side chain with (gamma-Glu)2-CO-(CH2)16-CO2H; SITE 20:
B6: Example 960 (peptide)
chain: B1 chain with X25Y, E28A
modifications: synthetic construct; SITE 2: note = 2-Aminoisobutyric Acid; SITE 10: note = 3-(4-Pyridyl)-L-alanine; SITE 13: note = alpha-methyl-leucine; SITE 17: note = Lysine is chemically modified through conjugation of the epsilon-amino group of the Lysine side chain with (gamma-Glu)2-CO-(CH2)16-CO2H; SITE 20:
B7: Example 967 (peptide)
chain: B1 chain with Q12X
modifications: Aib, 4Pal, Orn, Me4Pal, αMeY; acylated lysine; amide; synthetic construct; SITE 2: note = 2-Aminoisobutyric Acid; SITE 10: note = 3-(4-Pyridyl)-L-alanine; SITE 12: note = L-ornithine; SITE 13: note = alpha-methyl-leucine; SITE 17: note = Lysine is chemically modified through conjugation of the epsilon-amino group of the Lysine side chain with (gamma-Gl)
B8: Example 978 (peptide)
chain: B1 chain with K16X, X25Y, E28A, A35E, E42G
modifications: synthetic construct; SITE 2: note = 2-Aminoisobutyric Acid; SITE 10: note = 3-(4-Pyridyl)-L-alanine; SITE 13: note = alpha-methyl-leucine; SITE 16: note = L-ornithine; SITE 17: note = Lysine is chemically modified through conjugation of the epsilon-amino group of the Lysine side chain with (gamma-Gl)
B9: Example 981 (peptide)
chain: B1 chain with Q12X, X25Y, E28A, A35E, S41T
modifications: synthetic construct; SITE 2: note = 2-Aminoisobutyric Acid; SITE 10: note = 3-(4-Pyridyl)-L-alanine; SITE 12: note = L-ornithine; SITE 13: note = alpha-methyl-leucine; SITE 17: note = Lysine is chemically modified through conjugation of the epsilon-amino group of the Lysine side chain with (gamma-Gl)
B10: Example 964 (peptide)
chain: B1 chain with Q12X, X25Y, E28A, P31E
modifications: synthetic construct; SITE 2: note = 2-Aminoisobutyric Acid; SITE 10: note = 3-(4-Pyridyl)-L-alanine; SITE 12: note = L-ornithine; SITE 13: note = alpha-methyl-leucine; SITE 17: note = Lysine is chemically modified through conjugation of the epsilon-amino group of the Lysine side chain with (gamma-Gl)
B11: Example 976 (peptide)
chain: B1 chain with Q12X, K16X, A21E, I27L
modifications: non-natural residues; lipidated Lys; C-terminal amide; synthetic construct; SITE 2: note = 2-Aminoisobutyric Acid; SITE 10: note = 3-(4-Pyridyl)-L-alanine; SITE 12: note = L-ornithine; SITE 13: note = alpha-methyl-leucine; SITE 16: note = L-ornithine; SITE 17: note = Lysine is chemically modified through conjugation of the epsilon-amino group of the Lys
B12: Example 975 (peptide)
chain: B1 chain with Q12X, K16X, A21Q, I27L
modifications: non-natural residues; acylated Lys; C-terminal amide; synthetic construct; SITE 2: note = 2-Aminoisobutyric Acid; SITE 10: note = 3-(4-Pyridyl)-L-alanine; SITE 12: note = L-ornithine; SITE 13: note = alpha-methyl-leucine; SITE 16: note = L-ornithine; SITE 17: note = Lysine is chemically modified through conjugation of the epsilon-amino group of the Lys
B13: Example 961 (peptide)
chain: B1 chain with Q12X, X25Y, E28A
modifications: synthetic construct; SITE 2: note = 2-Aminoisobutyric Acid; SITE 10: note = 3-(4-Pyridyl)-L-alanine; SITE 12: note = L-ornithine; SITE 13: note = alpha-methyl-leucine; SITE 17: note = Lysine is chemically modified through conjugation of the epsilon-amino group of the Lysine side chain with (gamma-Gl)
B14: Example 958 (peptide)
chain: B1 chain with Q12X
modifications: Aib, 4Pal, Orn, αMeL, Me4Pal, acylated K, C-terminal amide; synthetic construct; SITE 2: note = 2-Aminoisobutyric Acid; SITE 10: note = 3-(4-Pyridyl)-L-alanine; SITE 12: note = L-ornithine; SITE 13: note = alpha-methyl-leucine; SITE 17: note = Lysine is chemically modified through conjugation of the epsilon-amino group of the Lysine side chain with (gamma-Gl)
B15: Example 955 (peptide)
chain: B1 chain with Q12X
modifications: Aib, 4Pal, Me4Pal, Orn, alpha-methyl-Leu, lipidated Lys, amide; synthetic construct; SITE 2: note = 2-Aminoisobutyric Acid; SITE 10: note = 3-(4-Pyridyl)-L-alanine; SITE 12: note = L-ornithine; SITE 13: note = alpha-methyl-leucine; SITE 17: note = Lysine is chemically modified through conjugation of the epsilon-amino group of the Lysine side chain with (2-[2-(2-
B16: Example 965 (peptide)
chain: B1 chain with Q12R, X25Y, E28A, P31E
modifications: synthetic construct; SITE 2: note = 2-Aminoisobutyric Acid; SITE 10: note = 3-(4-Pyridyl)-L-alanine; SITE 13: note = alpha-methyl-leucine; SITE 17: note = Lysine is chemically modified through conjugation of the epsilon-amino group of the Lysine side chain with (gamma-Glu)2-CO-(CH2)16-CO2H; SITE 20:

These binders were tested against hGLP-1R (Homo sapiens, UniProt P43220) (assay: cell-based or functional assay).
Sequence of hGLP-1R (P43220 24-463): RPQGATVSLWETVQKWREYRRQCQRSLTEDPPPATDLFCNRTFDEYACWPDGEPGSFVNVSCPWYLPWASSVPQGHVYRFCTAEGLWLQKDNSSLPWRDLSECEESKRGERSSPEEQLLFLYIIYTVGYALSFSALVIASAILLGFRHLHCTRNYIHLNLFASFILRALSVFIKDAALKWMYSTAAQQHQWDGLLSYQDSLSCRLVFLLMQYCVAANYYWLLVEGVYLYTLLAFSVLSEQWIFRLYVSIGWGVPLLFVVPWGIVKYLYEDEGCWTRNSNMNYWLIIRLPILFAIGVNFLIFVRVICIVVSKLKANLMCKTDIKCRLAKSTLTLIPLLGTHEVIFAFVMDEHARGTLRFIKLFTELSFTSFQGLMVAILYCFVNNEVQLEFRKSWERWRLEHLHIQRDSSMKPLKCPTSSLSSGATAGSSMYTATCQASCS

| Binder | cAMP Rel EC50, nM (1% HSA) [nM] | Relative cAMP EC50 [nM] |
| --- | --- | --- |
| B1 | 357 | – |
| B2 | 643 | – |
| B3 | 1140 | – |
| B4 | 747 | – |
| B5 | 132 | 1.36 |
| B6 | 161 | 1.51 |
| B7 | 345 | – |
| B8 | 174 | 1.6 |
| B9 | 330 | 4.45 |
| B10 | 267 | 2.67 |
| B11 | 2860 | – |
| B12 | 1810 | – |
| B13 | 216 | 2.52 |
| B14 | 850 | – |
| B15 | 1380 | – |
| B16 | 194 | 1.39 |

The binders below were run against T1, human GIP receptor (human) (UniProt P48546) (assay: cell-based or functional assay).
T1 sequence (looked up): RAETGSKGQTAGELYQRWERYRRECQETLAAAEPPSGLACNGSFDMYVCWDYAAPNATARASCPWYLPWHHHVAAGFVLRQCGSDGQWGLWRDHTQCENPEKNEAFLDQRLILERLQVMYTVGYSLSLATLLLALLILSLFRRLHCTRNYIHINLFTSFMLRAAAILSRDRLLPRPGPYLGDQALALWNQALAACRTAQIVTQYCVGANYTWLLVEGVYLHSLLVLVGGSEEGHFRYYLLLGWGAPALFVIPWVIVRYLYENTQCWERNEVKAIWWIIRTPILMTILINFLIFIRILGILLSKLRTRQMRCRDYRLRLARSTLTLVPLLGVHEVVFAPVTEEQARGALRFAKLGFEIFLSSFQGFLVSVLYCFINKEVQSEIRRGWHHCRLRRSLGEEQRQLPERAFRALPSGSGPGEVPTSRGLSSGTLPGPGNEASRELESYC

| Binder | cAMP Rel EC50, nM (1% HSA) [nM] | Relative cAMP EC50 [nM] |
| --- | --- | --- |
| B1 | 35.3 | – |
| B2 | 32.1 | – |
| B3 | 60.1 | – |
| B4 | 25 | – |
| B5 | 9.71 | 0.0972 |
| B6 | 14.1 | 0.124 |
| B7 | 39.5 | – |
| B8 | 33.9 | 0.284 |
| B9 | 21.1 | 0.243 |
| B10 | 21.4 | 0.288 |
| B11 | 82.7 | – |
| B12 | 30.1 | – |
| B13 | 13.6 | 0.167 |
| B14 | 27.1 | – |
| B15 | 42.3 | – |
| B16 | 23.2 | 0.13 |

What follows are binders tested against human glucagon receptor (human) (UniProt P47871) (assay: cell-based or functional assay).
Sequence of human glucagon receptor (human) (P47871 26-477): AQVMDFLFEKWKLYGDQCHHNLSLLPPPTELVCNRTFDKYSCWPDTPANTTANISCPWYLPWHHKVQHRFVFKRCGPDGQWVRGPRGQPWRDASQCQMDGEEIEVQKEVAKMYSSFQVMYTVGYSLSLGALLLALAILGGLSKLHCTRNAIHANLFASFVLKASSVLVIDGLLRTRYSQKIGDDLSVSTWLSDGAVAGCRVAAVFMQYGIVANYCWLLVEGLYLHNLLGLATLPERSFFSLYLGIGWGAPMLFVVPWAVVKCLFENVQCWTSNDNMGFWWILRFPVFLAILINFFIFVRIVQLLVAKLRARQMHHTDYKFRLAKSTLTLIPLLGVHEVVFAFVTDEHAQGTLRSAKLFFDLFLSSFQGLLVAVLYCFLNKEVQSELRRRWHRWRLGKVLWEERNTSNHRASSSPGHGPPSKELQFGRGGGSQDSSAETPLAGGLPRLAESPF

| Binder | cAMP Rel EC50, nM (1% HSA) [nM] | Relative cAMP EC50 [nM] |
| --- | --- | --- |
| B1 | 450 | – |
| B2 | 406 | – |
| B3 | 2270 | – |
| B4 | 947 | – |
| B5 | 485 | 3.13 |
| B6 | 813 | 5.5 |
| B7 | 508 | – |
| B8 | 824 | 8.91 |
| B9 | 477 | 3.7 |
| B10 | 324 | 2.75 |
| B11 | 848 | – |
| B12 | 374 | – |
| B13 | 342 | 2.96 |
| B14 | 340 | – |
| B15 | 366 | – |
| B16 | 430 | 3.35 |
